Laboratory results reported in patent publication EP4786492A1.
Numbering of substitutions follows the chain as printed.

B1: Hab009VL1aVH1-hFc (scFv, part only; not given: scFv linker and human IgG1 Fc, V domains shown, not shown: another chain or arm of the molecule; a dimerising Fc or GST; small tags and cut ends)
VL: DIVMTQSPLSLPVTPGEPASISCRASQTISDYLHWYLQKPGQSPQLLIKYASQSISGVPDRFSGSGSGSDFTLKISRVEAEDVGVYYCQQGHSFPLTFGQGTKLEIK
VH: EVQLVQSGAEVKKPGASVKVSCKASGYTFTSYWMHWVRQAPGQRLEWMGTIYPGNSDTRYNQKFKDRVTITADTSASTAYMELSSLRSEDTAVYYCTRSYDYGDLDYWGQGTTVTVSS
B2: Hab009VL2aVH1-hFc (scFv, part only; not given: VL-VH linker and human IgG1 Fc, V domains shown, not shown: another chain or arm of the molecule; a dimerising Fc or GST; small tags and cut ends)
VL: B1 VL with Q45R, S69T
VH: B1 VH

These binders were tested against human DLL3 protein expressed on CHO-K1 recombinant cells (human DLL3 extracellular segment fused to EpCAM transmembrane and intracellular regions) (human) (UniProt Q9NYJ7) (assay: FACS, CHO-K1 hDLL3 cells, 4 nM antibody).
Sequence of human DLL3 protein expressed on CHO-K1 recombinant cells (human DLL3 extracellular segment fused to EpCAM transmembrane and intracellular regions) (human) (Q9NYJ7 other isoform, or with tags, fused parts or gaps limits assumed): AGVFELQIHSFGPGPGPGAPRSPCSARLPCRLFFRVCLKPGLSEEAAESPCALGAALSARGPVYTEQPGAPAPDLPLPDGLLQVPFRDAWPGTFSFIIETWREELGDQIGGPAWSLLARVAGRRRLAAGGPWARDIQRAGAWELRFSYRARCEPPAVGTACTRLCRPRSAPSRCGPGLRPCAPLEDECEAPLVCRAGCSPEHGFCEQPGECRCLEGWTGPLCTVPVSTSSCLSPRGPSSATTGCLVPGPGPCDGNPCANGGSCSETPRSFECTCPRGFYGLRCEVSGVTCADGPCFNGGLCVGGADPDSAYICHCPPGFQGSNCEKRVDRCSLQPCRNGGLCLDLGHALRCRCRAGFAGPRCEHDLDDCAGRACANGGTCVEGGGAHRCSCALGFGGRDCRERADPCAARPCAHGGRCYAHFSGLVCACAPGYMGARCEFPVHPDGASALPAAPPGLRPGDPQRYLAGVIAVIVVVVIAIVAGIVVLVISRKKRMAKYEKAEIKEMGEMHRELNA

| Binder | MFI |
| --- | --- |
| B1 | 11900 MFI |
| B2 | 12700 MFI |

The binders below were run against mouse DLL3 on CHO-K1-mDLL3 cells (mouse) (UniProt O88516) (assay: FACS, CHO-K1-mDLL3 cells, 0.8 nM antibody).
Sequence of mouse DLL3 on CHO-K1-mDLL3 cells (mouse) (O88516 other isoform, or with tags, fused parts or gaps limits assumed): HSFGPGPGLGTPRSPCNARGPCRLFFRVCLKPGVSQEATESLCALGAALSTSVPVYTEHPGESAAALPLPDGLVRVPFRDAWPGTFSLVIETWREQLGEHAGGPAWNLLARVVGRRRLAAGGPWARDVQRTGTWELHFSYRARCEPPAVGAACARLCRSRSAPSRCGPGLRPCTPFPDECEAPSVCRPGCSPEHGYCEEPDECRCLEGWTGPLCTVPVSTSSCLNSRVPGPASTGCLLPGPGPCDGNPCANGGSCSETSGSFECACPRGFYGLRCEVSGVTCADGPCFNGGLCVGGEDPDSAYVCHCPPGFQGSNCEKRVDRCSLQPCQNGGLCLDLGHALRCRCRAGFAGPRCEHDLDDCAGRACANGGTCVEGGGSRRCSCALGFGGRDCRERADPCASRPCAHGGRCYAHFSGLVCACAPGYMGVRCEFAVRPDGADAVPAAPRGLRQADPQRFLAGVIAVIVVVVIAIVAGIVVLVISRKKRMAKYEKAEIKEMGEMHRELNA

| Binder | MFI |
| --- | --- |
| B1 | 327 MFI |
| B2 | 338 MFI |

These binders were tested against human DLL3 protein expressed on CHO-K1 recombinant cells (human DLL3 extracellular segment fused to EpCAM transmembrane and intracellular regions) (human) (UniProt Q9NYJ7) (assay: FACS, CHO-K1 hDLL3 cells, 100 nM antibody).

| Binder | MFI |
| --- | --- |
| B1 | 12900 MFI |
| B2 | 13100 MFI |

The binders below were run against mouse DLL3 on CHO-K1-mDLL3 cells (mouse) (UniProt O88516) (assay: FACS, CHO-K1-mDLL3 cells, 0.032 nM antibody).

| Binder | MFI |
| --- | --- |
| B1 | 166 MFI |
| B2 | 272 MFI |

Each binder was assayed against human DLL3 protein (extracellular segment, His tag) (human) (UniProt Q9NYJ7) (assay: SPR (Biacore 8K), antibody captured on Protein A chip, DLL3 antigen in solution, 1:1 Langmuir fit).
Sequence of human DLL3 protein (extracellular segment, His tag) (human) (Q9NYJ7 27-492): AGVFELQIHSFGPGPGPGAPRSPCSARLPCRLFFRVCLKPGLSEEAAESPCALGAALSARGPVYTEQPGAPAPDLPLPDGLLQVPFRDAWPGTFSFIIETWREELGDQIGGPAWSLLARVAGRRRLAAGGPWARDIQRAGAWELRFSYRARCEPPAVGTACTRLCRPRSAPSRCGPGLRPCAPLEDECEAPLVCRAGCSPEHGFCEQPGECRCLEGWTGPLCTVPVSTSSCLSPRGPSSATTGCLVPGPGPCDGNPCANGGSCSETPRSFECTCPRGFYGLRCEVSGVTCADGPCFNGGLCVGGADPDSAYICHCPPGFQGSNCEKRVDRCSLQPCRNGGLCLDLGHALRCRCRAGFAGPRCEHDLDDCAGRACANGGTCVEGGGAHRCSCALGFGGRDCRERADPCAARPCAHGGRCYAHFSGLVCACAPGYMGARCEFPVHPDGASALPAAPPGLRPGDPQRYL

| Binder | Kd | koff | kon |
| --- | --- | --- | --- |
| B1 | 0.325 nM | 0.00194 s⁻¹ | 5.96e+06 M⁻¹ s⁻¹ |
| B2 | 0.328 nM | 0.0019 s⁻¹ | 5.79e+06 M⁻¹ s⁻¹ |

The binders below were run against monkey DLL3 on CHO-K1-cyno DLL3 cells (cynomolgus monkey) (assay: FACS, CHO-K1-cyno DLL3 cells, 0.032 nM antibody).
Sequence of monkey DLL3 on CHO-K1-cyno DLL3 cells (cynomolgus monkey) (chain, as listed by the source limits assumed): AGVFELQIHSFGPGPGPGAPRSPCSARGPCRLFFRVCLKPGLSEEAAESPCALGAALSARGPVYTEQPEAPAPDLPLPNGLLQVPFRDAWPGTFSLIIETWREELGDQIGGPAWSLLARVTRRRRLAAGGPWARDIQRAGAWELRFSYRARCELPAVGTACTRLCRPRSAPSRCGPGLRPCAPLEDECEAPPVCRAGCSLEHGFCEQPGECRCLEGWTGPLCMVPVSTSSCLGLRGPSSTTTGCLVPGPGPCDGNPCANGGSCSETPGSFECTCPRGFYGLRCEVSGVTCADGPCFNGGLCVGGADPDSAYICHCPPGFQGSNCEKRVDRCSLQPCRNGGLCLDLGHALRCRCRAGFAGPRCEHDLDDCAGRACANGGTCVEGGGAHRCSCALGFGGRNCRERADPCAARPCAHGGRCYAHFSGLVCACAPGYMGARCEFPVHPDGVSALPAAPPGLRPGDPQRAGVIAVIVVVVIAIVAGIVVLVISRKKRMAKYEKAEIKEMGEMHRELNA

| Binder | MFI |
| --- | --- |
| B1 | 423 MFI |
| B2 | 5450 MFI |

What follows are binders tested against human DLL3 protein expressed on CHO-K1 recombinant cells (human DLL3 extracellular segment fused to EpCAM transmembrane and intracellular regions) (human) (UniProt Q9NYJ7) (assay: FACS, CHO-K1 hDLL3 cells, 0.032 nM antibody).

| Binder | MFI |
| --- | --- |
| B1 | 1540 MFI |
| B2 | 1610 MFI |

The binders below were run against mouse DLL3 on CHO-K1-mDLL3 cells (mouse) (UniProt O88516) (assay: FACS, CHO-K1-mDLL3 cells, 0.00128 nM antibody).

| Binder | MFI |
| --- | --- |
| B1 | 86 MFI |
| B2 | 172 MFI |

Each binder was assayed against monkey DLL3 on CHO-K1-cyno DLL3 cells (cynomolgus monkey) (assay: FACS, CHO-K1-cyno DLL3 cells, 0.0064 nM antibody).

| Binder | MFI |
| --- | --- |
| B1 | 178 MFI |
| B2 | 3160 MFI |

These binders were tested against monkey DLL3 on CHO-K1-cyno DLL3 cells (cynomolgus monkey) (assay: FACS, CHO-K1-cyno DLL3 cells, 0.8 nM antibody).

| Binder | MFI |
| --- | --- |
| B1 | 6880 MFI |
| B2 | 24300 MFI |

These binders were tested against mouse DLL3 on CHO-K1-mDLL3 cells (mouse) (UniProt O88516) (assay: FACS, CHO-K1-mDLL3 cells, 0.16 nM antibody).

| Binder | MFI |
| --- | --- |
| B1 | 258 MFI |
| B2 | 300 MFI |

Each binder was assayed against human DLL1 protein (Acro, Cat. No. DL1-H52H8) (human) (UniProt O00548) (assay: ELISA, coated hDLL1; maximum over 0.1, 1, 10, 100 nM antibody).
Sequence of human DLL1 protein (Acro, Cat. No. DL1-H52H8) (human) (O00548 18-540 limits assumed): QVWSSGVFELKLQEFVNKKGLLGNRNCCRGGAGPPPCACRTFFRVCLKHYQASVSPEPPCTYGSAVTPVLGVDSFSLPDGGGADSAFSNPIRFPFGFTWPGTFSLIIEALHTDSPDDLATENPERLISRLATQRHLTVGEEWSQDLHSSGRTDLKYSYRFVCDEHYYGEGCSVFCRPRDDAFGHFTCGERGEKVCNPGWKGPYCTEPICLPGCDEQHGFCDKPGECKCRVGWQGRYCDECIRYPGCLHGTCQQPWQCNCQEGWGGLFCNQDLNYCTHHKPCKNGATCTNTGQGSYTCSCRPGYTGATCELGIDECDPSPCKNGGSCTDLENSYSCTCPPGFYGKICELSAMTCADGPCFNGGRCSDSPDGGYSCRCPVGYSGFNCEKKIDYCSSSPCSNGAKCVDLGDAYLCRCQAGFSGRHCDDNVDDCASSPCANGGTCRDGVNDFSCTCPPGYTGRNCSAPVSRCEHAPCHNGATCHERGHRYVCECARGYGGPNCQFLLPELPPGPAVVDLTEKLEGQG

| Binder | Emax of OD450 nm binding value |
| --- | --- |
| B1 | 0.05 OD450 nm |
| B2 | 0.07 OD450 nm |

These binders were tested against mouse DLL3 on CHO-K1-mDLL3 cells (mouse) (UniProt O88516) (assay: FACS, CHO-K1-mDLL3 cells, 0.0064 nM antibody).

| Binder | MFI |
| --- | --- |
| B1 | 109 MFI |
| B2 | 238 MFI |

Each binder was assayed against human DLL4 protein (Acro, Cat. No. DL4-H5227) (human) (UniProt Q9NR61) (assay: ELISA, coated hDLL4; maximum over 0.1, 1, 10, 100 nM antibody).
Sequence of human DLL4 protein (Acro, Cat. No. DL4-H5227) (human) (Q9NR61 27-524 limits assumed): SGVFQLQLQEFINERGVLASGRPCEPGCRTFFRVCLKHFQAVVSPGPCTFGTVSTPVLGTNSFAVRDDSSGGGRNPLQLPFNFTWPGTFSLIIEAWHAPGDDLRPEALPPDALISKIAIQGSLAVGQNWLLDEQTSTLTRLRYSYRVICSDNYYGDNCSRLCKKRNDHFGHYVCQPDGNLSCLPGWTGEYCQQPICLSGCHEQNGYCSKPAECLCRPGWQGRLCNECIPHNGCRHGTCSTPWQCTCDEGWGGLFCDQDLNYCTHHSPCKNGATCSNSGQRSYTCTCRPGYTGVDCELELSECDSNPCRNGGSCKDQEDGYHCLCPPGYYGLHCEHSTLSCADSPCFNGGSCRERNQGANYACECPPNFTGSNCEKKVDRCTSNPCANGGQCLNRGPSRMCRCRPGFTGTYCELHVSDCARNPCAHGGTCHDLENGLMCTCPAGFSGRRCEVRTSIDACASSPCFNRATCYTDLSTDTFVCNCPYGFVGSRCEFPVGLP

| Binder | Emax of OD450 nm binding value |
| --- | --- |
| B1 | 0.08 OD450 nm |
| B2 | 0.06 OD450 nm |

What follows are binders tested against human delta-like ligand 3 (DLL3) on SHP77 cells (human) (UniProt Q9NYJ7) (assay: FACS on SHP77 cells).
Sequence of human delta-like ligand 3 (DLL3) on SHP77 cells (human) (Q9NYJ7 27-618, stated change not applied): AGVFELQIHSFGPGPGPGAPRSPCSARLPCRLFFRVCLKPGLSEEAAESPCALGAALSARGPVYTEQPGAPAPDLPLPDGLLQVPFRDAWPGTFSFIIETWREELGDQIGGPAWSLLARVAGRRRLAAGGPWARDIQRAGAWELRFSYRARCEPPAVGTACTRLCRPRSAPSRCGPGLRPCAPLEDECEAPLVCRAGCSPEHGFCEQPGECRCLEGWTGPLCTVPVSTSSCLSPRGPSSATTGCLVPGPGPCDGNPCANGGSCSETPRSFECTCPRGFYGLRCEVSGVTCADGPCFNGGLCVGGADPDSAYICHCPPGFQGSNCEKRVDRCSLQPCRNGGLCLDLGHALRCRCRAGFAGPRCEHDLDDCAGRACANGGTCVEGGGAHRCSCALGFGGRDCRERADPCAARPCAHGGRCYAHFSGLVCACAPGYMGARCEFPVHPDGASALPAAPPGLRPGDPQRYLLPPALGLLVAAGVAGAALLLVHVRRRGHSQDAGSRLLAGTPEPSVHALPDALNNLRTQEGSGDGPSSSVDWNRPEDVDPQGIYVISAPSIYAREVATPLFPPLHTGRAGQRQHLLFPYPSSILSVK

| Binder | MFI at 0.00128 nM | MFI at 0.0064 nM | MFI at 0.032 nM | MFI at 0.16 nM | MFI at 0.8 nM | MFI at 4 nM | MFI at 20 nM | MFI at 100 nM |
| --- | --- | --- | --- | --- | --- | --- | --- | --- |
| B1 | 107 MFI | 129 MFI | 205 MFI | 430 MFI | 692 MFI | 783 MFI | 855 MFI | 969 MFI |
| B2 | 108 MFI | 128 MFI | 201 MFI | 432 MFI | 683 MFI | 784 MFI | 825 MFI | 929 MFI |

These binders were tested against monkey DLL3 on CHO-K1-cyno DLL3 cells (cynomolgus monkey) (assay: FACS, CHO-K1-cyno DLL3 cells, 100 nM antibody).

| Binder | MFI |
| --- | --- |
| B1 | 27000 MFI |
| B2 | 28400 MFI |

Each binder was assayed against monkey DLL3 on CHO-K1-cyno DLL3 cells (cynomolgus monkey) (assay: FACS, CHO-K1-cyno DLL3 cells, 0.16 nM antibody).

| Binder | MFI |
| --- | --- |
| B1 | 1640 MFI |
| B2 | 13700 MFI |

The binders below were run against mouse DLL3 on CHO-K1-mDLL3 cells (mouse) (UniProt O88516) (assay: FACS, CHO-K1-mDLL3 cells, 20 nM antibody).

| Binder | MFI |
| --- | --- |
| B1 | 383 MFI |
| B2 | 398 MFI |

These binders were tested against monkey DLL3 on CHO-K1-cyno DLL3 cells (cynomolgus monkey) (assay: FACS, CHO-K1-cyno DLL3 cells, 0.00128 nM antibody).

| Binder | MFI |
| --- | --- |
| B1 | 120 MFI |
| B2 | 1340 MFI |

Each binder was assayed against human DLL3 protein expressed on CHO-K1 recombinant cells (human DLL3 extracellular segment fused to EpCAM transmembrane and intracellular regions) (human) (UniProt Q9NYJ7) (assay: FACS, CHO-K1 hDLL3 cells, 20 nM antibody).

| Binder | MFI |
| --- | --- |
| B1 | 12400 MFI |
| B2 | 12600 MFI |

These binders were tested against human DLL3 protein expressed on CHO-K1 recombinant cells (human DLL3 extracellular segment fused to EpCAM transmembrane and intracellular regions) (human) (UniProt Q9NYJ7) (assay: FACS, CHO-K1 hDLL3 cells, 0.00128 nM antibody).

| Binder | MFI |
| --- | --- |
| B1 | 199 MFI |
| B2 | 210 MFI |

The binders below were run against mouse DLL3 on CHO-K1-mDLL3 cells (mouse) (UniProt O88516) (assay: FACS, CHO-K1-mDLL3 cells, 100 nM antibody).

| Binder | MFI |
| --- | --- |
| B1 | 400 MFI |
| B2 | 438 MFI |

These binders were tested against human DLL3 protein expressed on CHO-K1 recombinant cells (human DLL3 extracellular segment fused to EpCAM transmembrane and intracellular regions) (human) (UniProt Q9NYJ7) (assay: FACS, CHO-K1 hDLL3 cells, 0.0064 nM antibody).

| Binder | MFI |
| --- | --- |
| B1 | 452 MFI |
| B2 | 476 MFI |

The binders below were run against human DLL3 protein expressed on CHO-K1 recombinant cells (human DLL3 extracellular segment fused to EpCAM transmembrane and intracellular regions) (human) (UniProt Q9NYJ7) (assay: FACS, CHO-K1 hDLL3 cells, 0.16 nM antibody).

| Binder | MFI |
| --- | --- |
| B1 | 5840 MFI |
| B2 | 5930 MFI |

These binders were tested against monkey DLL3 on CHO-K1-cyno DLL3 cells (cynomolgus monkey) (assay: FACS, CHO-K1-cyno DLL3 cells, 20 nM antibody).

| Binder | MFI |
| --- | --- |
| B1 | 27100 MFI |
| B2 | 28200 MFI |

The binders below were run against mouse DLL3 on CHO-K1-mDLL3 cells (mouse) (UniProt O88516) (assay: FACS, CHO-K1-mDLL3 cells, 4 nM antibody).

| Binder | MFI |
| --- | --- |
| B1 | 367 MFI |
| B2 | 358 MFI |

What follows are binders tested against human DLL3 protein expressed on CHO-K1 recombinant cells (human DLL3 extracellular segment fused to EpCAM transmembrane and intracellular regions) (human) (UniProt Q9NYJ7) (assay: FACS, CHO-K1 hDLL3 cells, 0.8 nM antibody).

| Binder | MFI |
| --- | --- |
| B1 | 11000 MFI |
| B2 | 12000 MFI |

These binders were tested against monkey DLL3 on CHO-K1-cyno DLL3 cells (cynomolgus monkey) (assay: FACS, CHO-K1-cyno DLL3 cells, 4 nM antibody).

| Binder | MFI |
| --- | --- |
| B1 | 19900 MFI |
| B2 | 27600 MFI |
